Results: patent US20180022819A1, “COMPOSITIONS AND METHODS FOR COMBINATION THERAPY WITH PROSTATE-SPECIFIC MEMBRANE ANTIGEN BINDING PROTEINS” (APTEVO RESEARCH AND DEVELOPMENT LLC, priority 2015, published 2018)

Columns and labels:
LNCaP cells [1] = test: Growth inhibition of LNCaP-GFP cells with primary human T-cells, 4 days, with combination index analysis (Example 6); type: cell-based
Protocol: Additional procedures are described in Example 6. Percentage of live cells relative to an untreated control is shown on the y-axis.
Combination indices can indicate additive effects (CI=1), synergism (CI<1), or antagonism (CI>1).
Overall fluorescent signal from GFP enabled the quantitation of living LNCaP target cells in isolation from T-cells. […] TSC249 was added to have final concentrations of 125, 62.5, 31.25, 15.6, 7.8, 3.9, or 1.95 pM, or none. T-cells from several donors were used in replicate experiments, added at a ratio of 45,000 T-cells to 15,000 LNCaP cells per well.
After 4 days culture at 37° C. in 5% CO2, media was aspirated from wells and […] of 0.4% NP-40 was added to each well. Fluorescent signal from GFP in LNCaP cells adherent in wells was detected by a Spectramax plate reader, reading from the bottom of the wells. […]
The combination index theorem developed by Chou and Talalay was used to determine the interaction between the two compounds in their anti-cancer activity (see Chou, Cancer Res. 2010 Jan. 15; 70(2):440-6; Chou, Pharmacol Rev. 2006 September; 58(3):621-81). For each plate, relative fluorescence units (RFU) of all wells were normalized to the RFU of the well containing cells only, i.e., the proportion of living LNCaP cells in each well was expressed in relation to untreated LNCaP cells. […] Mean values were calculated from three replicates. […]

LNCaP cells [2] = test: Effect of enzalutamide on redirected T-cell cytotoxicity in LNCaP cells expressing GFP (Example 1); type: cell-based, human; parameters: reduction of live target cells: dose or concentration left out as unconfirmed; conditions: TSC249 titration with T-cells and […] nM enzalutamide, compared to TSC249 and T-cells alone
Protocol: A titration of the anti-PSMA bispecific molecule TSC249 (protein sequence of SEQ ID NO: 78 in Table 3) was added to all sets of LNCaP cells in the amounts shown on the x-axis. T-cells and DMSO were added to the first set of LNCaP cells (leftmost set of bars). […] No T-cells and DMSO were added to the third set of LNCaP cells (set of bars second from the right). […] LNCaP cell growth (number of live cells) was measured by overall fluorescence and expressed as a fraction of live cells relative to the cells untreated with TSC249 on the y-axis.
LNCaP cells expressing GFP were cultured with donor T-cells at a 3:1 ratio of T-cells to LNCaP target cells for 4 days. […] DMSO alone was added to other samples. A titration of the anti-PSMA bispecific molecule TSC249 (protein sequence of SEQ ID NO: 78 in Table 3) was added to the cell cultures. LNCaP cell growth (number of live cells) was monitored by overall fluorescence.

22Rv1 cells = test: Chromium-51 release assay of redirected T-cell cytotoxicity against 22Rv1 cells (Example 5); type: cell-based, human; conditions: enzalutamide-treated 22Rv1 cells relative to untreated 22Rv1 cells
Protocol: FIG. 3 (top panel) is a graph showing the results of a chromium-51 release assay measuring the effectiveness of the anti-PSMA bispecific molecule TSC249 at inducing redirected T-cell cytotoxicity in 4 hours against enzalutamide-treated and untreated prostate cancer 22Rv1 cells. Percent specific lysis relative to a total lysis control is shown on the y-axis. Concentration (pM) of the anti-PSMA bispecific molecule TSC249 is shown on the x-axis.
To compare the sensitivity of enzalutamide-treated and untreated 22Rv1 prostate cancer cells to target-dependent T-cell cytotoxicity, a bispecific binding molecule targeting PSMA and CD3 was tested in a chromium (^51Cr) release assay using donor T-cells as effector cells. [See, e.g., US 2014/0161800 A1, which describes multispecific binding molecules that bind to prostate-specific membrane antigen (PSMA) and CD3.]
Cytotoxicity was assessed by a ^51Cr release assay. […]
Plates were incubated for 4 hours, spun at 225×g for 3 minutes, and 25 μL of supernatant was transferred from each well to the corresponding well of a 96-well LUMAPLATE® sample plate (Perkin Elmer). Sample plates were allowed to air dry in a chemical safety hood for 18 hours, and then radioactivity was read on a Topcount scintillation counter using a standard protocol. […]

PSMA = test: Binding of FITC-labeled 107-1A4 to 22Rv1 cells by flow cytometry (Example 4); parameters: species or system human; conditions: 22Rv1 cells that were or were not incubated with enzalutamide
Excerpt: Mean fluorescence intensity (MFI) of bound molecules on live cells is shown on the y-axis. Concentration (nM) of the anti-PSMA monoclonal antibody 107-1A4 labeled with FITC is shown on the x-axis.
22Rv1 cells (PSMA+ at low level) were obtained from ATCC (Manassas, Va.) and cultured according to the ATCC protocol in RPMI-1640 media plus 10% FBS. […] All four cultures were harvested, stained for PSMA with FITC-labeled anti-PSMA monoclonal antibody 107-1A4 (Acris), and PSMA expression assayed by standard flow cytometry procedures. 22Rv1 cells were harvested with trypsin, and placed into FACS buffer (PBS+0.5% BSA [Equitech]+2 mM EDTA [Life Technologies]) at 1×10e6 per ml. FITC-107-1A4 was prepared at 36 nM in FACS buffer, and serially diluted 1:3, before adding 50 μl to 2×10e5 22Rv1 cells which had been pelleted in a 96 well plate. After 30 minute incubation on ice, cells were washed 3 times in FACS buffer, resuspended in FACS buffer, and data acquired on a BD LSRII flow cytometer. The sample files were analyzed using FlowJo software; the median fluorescence intensity (MFI) of the live population of 22Rv1 cells in each well was calculated after gating on live cells (forward vs side scatter). Median fluorescence intensities were fit to a 4-parameter logistic curve and graphed as concentration vs. MFI using GraphPad PRISM® software.

B1: TSC249: anti-PSMA bispecific molecule targeting PSMA and CD3; protein sequence of SEQ ID NO: 78 (protein)
chain: DIQMTQSPSAMSASVGDRVTITCRASKSISKYLAWFQQKPGKVPKLRIHSGSTLQSGVPSRFSGSGSGTEFTLTISSLQPEDFATYYCQQHIEYPWTFGQGTKVEIKRGGGGSGGGGSGGGGSQVQLVQSGAEVKKPGASVKVSCKASGYTFTDYYMHWVRQAPGQGLEWMGYFNPYNDYTRYAQKFQGRVTMTRDTSISTAYMELSSLRSDDTAVYYCARSDGYYDAMDYWGQGTTVTVSSSEPKSSDKTHTCPPCPAPEAAGAPSVFLFPPKPKDTLMISRTPEVTCVVVDVSHEDPEVKFNWYVDGVEVHNAKTKPREEQYNSTYRVVSVLTVLHQDWLNGKAYACAVSNKALPAPIEKTISKAKGQPREPQVYTLPPSRDELTKNQVSLTCLVKGFYPSDIAVEWESNGQPENNYKTTPPVLDSDGSFFLYSKLTVDKSRWQQGNVFSCSVMHEALHNHYTQKSLSLSPGQRHNNSSLNTGTQMAGHSPNSQVQLVESGGGVVQPGRSLRLSCKASGYTFTRSTMHWVRQAPGQGLEWIGYINPSSAYTNYNQKFKDRFTISADKSKSTAFLQMDSLRPEDTGVYFCARPQVHYDYNGFPYWGQGTPVTVSSGGGGSGGGGSGGGGSAQDIQMTQSPSSLSASVGDRVTMTCSASSSVSYMNWYQQKPGKAPKRWIYDSSKLASGVPARFSGSGSGTDYTLTISSLQPEDFATYYCQQWSRNPPTFGGGTKLQITSSS
modifications: Humanized TSC249 Scorpion (huVL-VH#2 107-1A4 scFv-Fc-DRA222 scFv)
With B1 the “interaction by combination index (Chou and Talalay)” value (LNCaP cells [1]; 1.95-31.25 pM TSC249 at all enzalutamide concentrations used (39, 156, 625 nM)) was “Synergy”, the “live cell signal when combined with the other drug” value (LNCaP cells [1]; enzalutamide plus TSC249 over a wide range of concentrations, T-cells, 4 days) was “further decrease in live cell signal” and the “reduction of live target cells” value (LNCaP cells [2]) was “higher dose-dependent reduction of live target cells”. The “specific lysis from T-cell directed cytotoxicity” value (22Rv1 cells) was “increase in specific lysis”.

B2: FITC-107-1A4: FITC-labeled anti-PSMA monoclonal antibody 107-1A4 (Acris) (antibody, V domains shown)
VH: EIQLQQSGPELVKPGASVKMSCKASGYTFTDYYMHWVKQNNGESLEWIGYFNPYNDYTRYNQNFNGKATLTVDKSSSTAYMQLNSLTSEDSAFYYCARSDGYYDAMDYWGQGTSVTVSS
VL: DVQITQSPSYLAASPGETITINCRASKSISKYLAWYQEKPGKANKLLIHSGSTLQSGIPSRFSGSGSGTDFTLTISSLEPEDFAMYYCQQHIEYPWTFGGGTKLEIKRA
With B2 the “ECso values determined from binding curves” value (PSMA) was “no significant differences”.
